From the DeepSol protein solubility set

Test: soluble on expression in E. coli; label from the status in PepcDB or PDB records

Row | Sequence | soluble on expression in E. coli
1 | SLVVNRSWMRCWSITALRADHSVKICLIDETGAGDGALSVLAARWGLEHDEDNLMALVLTPEHLELRKRDEPKLGGIFVDFVGGAMAHRRKFGGGRGEAVAKAVGIKGDYLPDVVDATAGLGRDAFVLASVGCRVRMLERNPVVAALLDDGLARGYADAEIGGWLQERLQLIHASSLTALTDITPRPQVVYLDPMFPHKQKSALVKKEMRVFQSLVGPDLDADGLLEPARLLATKRVVVKRPDYAPPLANVATPNAVVTKGHRFDIYAGTPV | soluble
2 | MKRPNFLFVMTDTQATNMVGCYSGKPLNTQNIDSLAAEGIRFNSAYTCSPVCTPARAGLFTGIYANQSGPWTNNVAPGKNISTMGRYFKDAGYHTCYIGKWHLDGHDYFGTGECPPEWDADYWFDGANYLSELTEKEISLWRNGLNSVEDLQANHIDETFTWAHRISNRAVDFLQQPARADEPFLMVVSYDEPHHPFTCPVEYLEKYADFYYELGEKAQDDLANKPEHHRLWAQAMPSPVGDDGLYHHPLYFACNDFVDDQIGRVINALTPEQRENTWVIYTSDHGEMMGAHKLISKGAAMYDDITRIPLIIRSPQGERRQVDTPVSHIDLLPTMMALADIEKPEILPGENILAVKEPRGVMVEFNRYEIEHDSFGGFIPVRCWVTDDFKLVLNLFTSDELYDRRNDPNEMHNLIDDIRFADVRSKMHDALLDYMDKIRDPFRSYQWSLRPWRKDARPRWMGAFRPRPQDGYSPVVRDYDTGLPTQGVKVEEKKQKF | soluble
3 | MAEGDLSFFVMLARRESFSATAQDLGLSASAVSRRLARLEDRLGVRLLNRTTRKVSLTSEGEAYYGAALRLLDEIADLEHNLSQGRDRPAGLLRINATLGFGRTHLAPAIARFRRIHPAVEVQLLLTDAPLNLVEEGIDLGIRFGAPPFGRMVMRLLQRNRRFLCAAPSYLEARGVPQSLTDLQQHSCIVLRQDHDAYDVWRFDDIGEASPSAKVSGELSTNDGEIALAWVLDGQGIMLRSEWDIAQHVREGRLRLLLPHYRQTANIHAIYPERHNLSAKVRVFADHLAAHVRDADARMPLQLAAAELRAATARA | not soluble
4 | MDGPKPNLASAASMESLNSVSSEATNPSQVRTLFVSGLPMDAKPRELYLLFRGCRGYEGALLKMTSKNGKPTSPVGFVTFLSQQDAQDARKMLQGVRFDPECAQVLRLELAKSNTKVARPKQSPPPPQHAALSAAAAGVPQFLAPMQHDLLLDPQSAALFNEQQLLALSLPHLHAAQALQAAYMPASALQQYSQNQLFAAAQMHPAAAAAASLQHSQQASQASTSACSTLFVANLSAEVNEDTLRGVFKAFSGFTRLRLHNKNGSCVAFVEYSDLQKATQAMISLQGFQITANDRGGLRIEYARNKMADVNG | soluble
5 | MDLDLIQDLPILNFPPAIKIRANTNRDDDGGGCTTPTSSDHKIPPTTATTPPPPPQKPRPPSTPSSLGIRSCKRKLMTSLSKYEIIVNKDEIERFFSSVYNQTMASSTTTAITVAKRRRSFRSCSRR | not soluble
6 | MLKREMNIADYDAELWQAMEQEKVRQEEHIELIASENYTSPRVMQAQGSQLTNKYAEGYPGKRYYGGCEYVDVVEQLAIDRAKELFGADYANVQPHSGSQANFAVYTALLQPGDTVLGMNLAQGGHLTHGSPVNFSGKLYNIVPYGIDESGKIDYDEMAKLAKEHKPKMIIGGFSAYSGVVDWAKMREIADSIGAYLFVDMAHVAGLIAAGVYPNPVPHAHVVTTTTHKTLAGPRGGLILAKGGDEELYKKLNSAVFPSAQGGPLMHVIAGKAVALKEAMEPEFKVYQQQVAKNAKAMVEVFLNRGYKVVSGGTENHLFLLDLVDKNLTGKEADAALGRANITVNKNSVPNDPKSPFVTSGIRIGSPAVTRRGFKEAEVKELAGWMCDVLDNINDEATIERVKAKVLDICARFPVYA | not soluble
7 | MGSDKIHHHHHHMKGFMNMFTNDQFKSLLIKTLERKSSSNYYEGGNEIVSKMKISEVTLDETDDFTYYKGYKKGWNTLCTYLKIRVPFDDLDFFESHKDLITQTASSIYDKQGDNVLVDTILVPLPENYEVINFSQLKISDVVSQAIEDAESFMSNGEYQRAFDRVHTAFHGYLIEILKKYEITVPRDENLSKLYSRIQQLIEKEIQPTELADIVKTTIRSSNGMISSLNEARNRHSLAHPNTNIIGKREAKLIIGISSTVTDYISGYLDK | not soluble
8 | MGKKPISILLMGTDTGALGRSYKGRTDSMMVVTINPKTKKTTITSIPRDLGVTIPGYESKSPSKINAAYAFGQAGTAIKTVQQVFNVPIDFYVLVNMGGMEKVVDEAGGVDITPTLSFTYDGYTFTKGVKTHMNGKKALAYSRMRYDDPQNDYGRQTRQRAVLTAIISKSSSVSSLLNKDFIDSISNETKTDFTFNDLVDLAKNYRSSTGSIEETHAQGDGQMVNGQSMEIVSNTELQRVTNFIRNGLSLEHEKTGTAALSASSANTSDSSVEAANINAGNLEHHHHHH | soluble
9 | MLRVRCLRGGSRGAEAVHYIGSRLGRTLTGWVQRTFQSTQAATASSRNSCAADDKATEPLPKDCPVSSYNEWDPLEEVIVGRAENACVPPFTIEVKANTYEKYWPFYQKQGGHYFPKDHLKKAVAEIEEMCNILKTEGVTVRRPDPIDWSLKYKTPDFESTGLYSAMPRDILIVVGNEIIEAPMAWRSRFFEYRAYRSIIKDYFHRGAKWTTAPKPTMADELYNQDYPIHSVEDRHKLAAQGKFVTTEFEPCFDAADFIRAGRDIFAQRSQVTNYLGIEWMRRHLAPDYRVHIISFKDPNPMHIDATFNIIGPGIVLSNPDRPCHQIDLFKKAGWTIITPPTPIIPDDHPLWMSSKWLSMNVLMLDEKRVMVDANEVPIQKMFEKLGITTIKVNIRNANSLGGGFHAWTCDVRRRGTLQSYLD | soluble
10 | SKHKQSSFTKSCYPRGTLSQAVDALYIKAAWLKATIPEDRIKNIRLLKKKTKKQFMKNCQFQEQLLSFFMEDVFGQLQLQGCKKIRFVEDFHSLRQKLSHCISCASSAREMKSITRMKRIFYRIGNKGIYKAISELDILLSWIKKLLESSQ | soluble
11 | MCPCPHSQAQGETDGEAEWHNAALDFTHAMSYGDYLKLDKVLDAQFPLSPDHNEMLFIIQHQTSELWMKLMLHELRAAREHVKSGKLGPALKMLARVSRIFDQLVHAWAVLATMTPTEYNTIRPYLGQSSGFQSYQYREIEFILGNKNATLLKPHAHRAELLAALEQALHTPSLYDEAIRLMAAQGLPVSQERLARDAAAGTCYEASVEAAWRQVYQAPERYWDLYQLAEKLIDLEDSFRQWRFRHVTTVERIIGFKPGTGGTEGVGYLRSMLDTILFPELWRLRSNL | not soluble
12 | MGSDKIHHHHHHMADNTPKFSQGSTSDTVGYEDFLVDLKTRISNAQLRAVVAVNKELVLLYWQIGRDILHRQQQQGWGAKVIDRLASDLRKAFPDIKGFSSRNLKYMRAFAEAYNDEEFVQQAVAQIPWGHNVRLLDAVKDPAERLWYAQQTIQNGWSRNVLVHQIESKLYQRQGKATTNFNNTLPQPQSELAQQLLKDPYTFDFLNLGEDFLERDLERALIKHIRDFLLELGVGFAFVGSQYHLEVGGEDFYIDLLFYHLRLRCFVVIDLKIEDFKPEFSGKMNFYVSAVDDLLRHPNDQSTIGIILCRSKNKVIAEYSLRDMYKPIGVSTYQLKDNLPEFVQDNLPTIEQLESELETVVLKLEKLDDL | not soluble
13 | MADSSSSSFFPDFGLLLYLEELNKEELNTFKLFLKETMEPEHGLTPWNEVKKARREDLANLMKKYYPGEKAWSVSLKIFGKMNLKDLCERAKEEINWSAQTIGPDDAKAGETQEDQEAVLGDGTEYRNRIKEKFCITWDKKSLAGKPEDFHHGIAEKDRKLLEHLFDVDVKTGAQPQIVVLQGAAGVGKTTLVRKAMLDWAEGSLYQQRFKYVFYLNGREINQLKERSFAQLISKDWPSTEGPIEEIMYQPSSLLFIIDSFDELNFAFEEPEFALCEDWTQEHPVSFLMSSLLRKVMLPEASLLVTTRLTTSKRLKQLLKNHHYVELLGMSEDAREEYIYQFFEDKRWAMKVFSSLKSNEMLFSMCQVPLVCWAACTCLKQQMEKGGDVTLTCQTTTALFTCYISSLFTPVDGGSPSLPNQAQLRRLCQVAAKGIWTMTYVFYRENLRRLGLTQSDVSSFMDSNIIQKDAEYENCYVFTHLHVQEFFAAMFYMLKGSWEAGNPSCQPFEDLKSLLQSTSYKDPHLTQMKCFLFGLLNEDRVKQLERTFNCKMSLKIKSKLLQCMEVLGNSDYSPSQLGFLELFHCLYETQDKAFISQAMRCFPKVAINICEKIHLLVSSFCLKHCRCLRTIRLSVTVVFEKKILKTSLPTNTWLKFITFPDGCQDISTSLIHNKNLMHLDLKGSDIGDNGVKSLCEALKHPECKLQTLRLESCNLTVFCCLNISNALIRSQSLIFLNLSTNNLLDDGVQLLCEALRHPKCYLERLSLESCGLTEAGCEYLSLALISNKRLTHLCLADNVLGDGGVKLMSDALQHAQCTLKSLVLRRCHFTSLSSEYLSTSLLHNKSLTHLDLGSNWLQDNGVKLLCDVFRHPSCNLQDLELMGCVLTNACCLDLASVILNNPNLRSLDLGNNDLQDDGVKILCDALRYPNCNIQRLGLEYCGLTSLCCQDLSSALICNKRLIKMNLTQNTLGYEGIVKLYKVLKSPKCKLQVLGQQDFQAAQGKLQQRRPLKPLRPGQVNRKLKTEKETQNCRLSRRRIGPLETADQSQAAGARPAAGLRLRFRGLGD | soluble
14 | MAHHHHHHMMEERYNPFTGYQTPRHQQQSYRHNGGAMSRGGWGERVDAPADKMKPVDWTRVKLVPGSWKVLDTKAIHRAAHAKAEVVPAKQLTEEESNEWRETHTISIFGEGCPPPLSNFDQLSAFVPAYLQKKLTAQGFTSPTAVQAQAWPILLRGRDMVGVAKTGSGKTLAFMVPALAHIAMQEPLRTGDGPMVVVLAPTRELAQQIEQETKKVLPHDLRCGCVYGGAPKGPQLGILRNGVHILVATPGRLIDFLEIKRVNFFRVTYLVLDEADRMLDMGFEPQVRAICGQIRPDRQTLMFSATWPKEIQRLAAEFQKDWIRINVGSTELLANKDVTQHFILTQEHAKMEELKKLLANHRNQRVLIFCKTKRTADDLEWQLKRWGYDAMAIHGDKEQRQREFILERFRKDPRLCLVATDVAARGLDIKELETVINYDFPMQIDDYVHRIGRTGRAGAKGEAFTLITKREQQITPAVVTELIAIVDRAQQQVPDWLREWGEQRPRYQVMKRNRNMMGFGSSRHMPALYNGNRASFDAAGGGHPGNNNGTAGNKRGGEGGVFGLARHGSNGAAPFSSSRIEYKRFDDSDDDDGAAPPAKKRSK | soluble
15 | MNEFSILCRVLGSLFYRQPQDPLLVPLFTLIREGKLAANWPLEQDDMLARLQKSCDITQISTDYNALFVGEECAVAPYRSAWVEGAEESEVRAFLTSRGMPLADTPADHIGTLLLAASWLEDQSAEDESEALETLFADYLLPWCNTFLGKVEAHAVTPFWRTLAPLTRDAIGAMWDELQEEDEE | not soluble
16 | MGSDKIHHHHHHMNYKYYTIVILGLLAFSACEKDDIDIPATDNEVNQWIEQTMRENYLWYSELPDKSSLDFSLDPESFFKGLLSDKDGKELSDGHHYFSQLEKATVTKSIYDANNSYGFDFATSNLKDGGSTYKIAIVLYVLKDSPAEEAGLKRGDWILGVNGSLGSIQDYDVLRSGGSVSLQLGKETGNTKGFVSTRRVTLNASRTVEDSPFLKDSVYTYGNKRIGYLMYNHFASGPDEYDYSDTSYNLYLQQLFEKFKSRNVNEFVLDLRYNGGGLVNCAQLLASLLVRENVLGEPLCIMEYNDKNSNKNETLPLLKTTEVMAGNLNLQRLFVLTGSTTASASELIINSLRSYLDVRVIGKQTFGKTVGMTIYNESKKYGWILSPVTFHIYNKDREADYEDGFHPDVAIDEFKSDLAEFGDLKDPLLGQAIYEITGQSPLLRSATPRGNREIQYNPPLSYKDNLLLIPKD | not soluble
